Test results taken from paper PMC6802964.

Experiments:
[1] = biological target: T1, CyPet–Myo1^IQ1–YPet FRET reporter protein (S. pombe); assay: other fluorescence titration; change of the CyPet-YPet FRET signal of the IQ-FRET protein (1 µM by the methods, 0.5 µM by the legend) with varying concentrations of Cam1 or Cam2; 140 mM KCl, 20 mM MOPS pH 7.0, with or without 2 mM MgCl2, 2 mM EGTA (absence of calcium)
T1 sequence (Q9Y7Z8 whole entry, looked up): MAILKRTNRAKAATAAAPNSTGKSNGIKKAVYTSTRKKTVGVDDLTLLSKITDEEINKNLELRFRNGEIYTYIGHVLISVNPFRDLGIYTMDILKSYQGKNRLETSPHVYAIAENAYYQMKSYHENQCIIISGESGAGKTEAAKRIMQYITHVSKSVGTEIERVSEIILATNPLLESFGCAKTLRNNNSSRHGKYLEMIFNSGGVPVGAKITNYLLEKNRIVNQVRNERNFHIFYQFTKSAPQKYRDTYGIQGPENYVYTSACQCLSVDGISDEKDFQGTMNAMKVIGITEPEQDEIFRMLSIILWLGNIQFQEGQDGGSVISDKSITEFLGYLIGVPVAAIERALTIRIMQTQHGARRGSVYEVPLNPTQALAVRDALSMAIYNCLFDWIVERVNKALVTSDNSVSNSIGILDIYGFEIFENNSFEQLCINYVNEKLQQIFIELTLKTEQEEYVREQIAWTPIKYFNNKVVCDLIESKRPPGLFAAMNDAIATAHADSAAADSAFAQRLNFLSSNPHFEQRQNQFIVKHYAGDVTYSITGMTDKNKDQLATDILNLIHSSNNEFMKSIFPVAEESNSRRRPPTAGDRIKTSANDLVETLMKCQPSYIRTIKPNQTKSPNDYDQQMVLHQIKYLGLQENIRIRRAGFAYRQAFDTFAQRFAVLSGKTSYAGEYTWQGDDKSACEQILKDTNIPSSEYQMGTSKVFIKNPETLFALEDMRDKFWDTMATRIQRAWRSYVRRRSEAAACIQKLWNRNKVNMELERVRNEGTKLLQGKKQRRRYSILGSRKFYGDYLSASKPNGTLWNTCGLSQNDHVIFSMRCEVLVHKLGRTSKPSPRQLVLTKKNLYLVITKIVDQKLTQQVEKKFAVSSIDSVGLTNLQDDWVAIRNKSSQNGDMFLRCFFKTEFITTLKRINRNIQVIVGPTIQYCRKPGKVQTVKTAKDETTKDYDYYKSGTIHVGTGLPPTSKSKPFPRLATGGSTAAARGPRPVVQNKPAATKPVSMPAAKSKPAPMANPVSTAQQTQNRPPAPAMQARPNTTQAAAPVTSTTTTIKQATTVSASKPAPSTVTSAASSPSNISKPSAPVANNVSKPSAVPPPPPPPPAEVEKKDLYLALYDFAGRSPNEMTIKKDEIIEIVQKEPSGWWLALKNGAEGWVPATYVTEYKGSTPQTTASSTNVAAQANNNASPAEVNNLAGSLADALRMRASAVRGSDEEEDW

[2] = biological target: T2, CyPet–Myo1^IQ12–YPet FRET reporter protein (S. pombe); assay: as above
T2 sequence (Q9Y7Z8 whole entry, looked up): T1 sequence (Q9Y7Z8 whole entry, looked up)

Q: For “Cam1 (wild type, amino-terminally acetylated fission yeast calmodulin) (from UniProt P05933 1-150) (natural protein)”, which Kd [1] is on record?
A: The Kd was under 100 nM.

Q: And the KD of the first binding event [2]?
A: Its KD of the first binding event is under 100 nM.

Q: And the KD of the second binding event [2]?
A: The KD of the second binding event was 680 nM.
